# According to the supplement of paper PMC12764529:
# ± gives the half width of the 95% confidence interval.
# Test: folding stability dG unfold (combined trypsin and chymotrypsin); higher = more stable
# Outline: (§1)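 How resistant each design was to proteolysis was captured as K50, inferred by Bayesian fitting of sequencing counts. Unfolding free energy was then derived relative to a sequence-predicted unfolded-state K50 and a shared folded-state K50, per protease or combined. Digestion used trypsin and chymotrypsin at 11 threefold-diluted concentrations plus a no-protease condition, on mini-proteins under 80 residues without cysteine in a PA-tagged cDNA display construct. Designs were kept only when AlphaFold2 dimer inter-PAE was above 15.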
row,Sequence,folding stability dG unfold
1,SAGGSAGGSMADITITVTDPATGATRTFPHSVSLEEILAEHPGPVTVTIETPTSTTTLQVPRESAGGSAGGS [r12_1056_JUSTAS],0.542 ± 0.056 kcal/mol
2,SAGGSAGGSDMVLVTAPVDIPPNVKVEIKLKDGYETVSYDPESGRLVILVPANKLDEVLEAIKSAGGSAGGS [r12_476_TrMRF],1.65 ± 0.075 kcal/mol
3,SAGGSAGGSAGGMILVQDKKTKKWYEIKPGESLENLEFPEGVKEVRIYVFNEDGELVELDSAGGSAGGSAGG [r7_763_TrROS_Hall],2.28 ± 0.12 kcal/mol
4,SAGGSMNPSVSVEEEVFPDGVTRLKLTFSDGKELEAEVTRHADGNVQVTLYDKSPGKKTTYTIPLSSAGGSA [r2_99_JUSTAS],1.21 ± 0.21 kcal/mol
5,SAGGSAGGSAGRMLVIEIEMPGRKRTFMIPTPDGPPIKAEELADKLGFDNVTVKIHPIDDSAGGSAGGSAGG [r11_219_TrROS],0.0664 ± 0.16 kcal/mol
6,SAGGSAGGSAGEKDLPVIEVEFPFPSSFPLPLIKKFAEPFGVKKVEFFEDGTVKVLYVLDSAGGSAGGSAGG [r11_961_TrMRF],0.806 ± 0.13 kcal/mol
7,SAGGKLTPEEIEELAKKLAEELRKEGKEVEIEVEIEVDGKLIKIKMKIDPKTKKIEIVKIEVYPKEDLSAGG [r13_37_TrROS_Hall],3.58 ± 0.21 kcal/mol
8,SAGGSAGGSAGGKPKKILNIELVLKGKDGKKYKLKIEIYNYPDKPKIYITFPDGTTIEASAGGSAGGSAGGS [r10_404_TrMRF],5.15 ± 0.21 kcal/mol
9,SAGGKLTLEEIKALLKEGKEYSLEELLKKIAELLNLTVELEEEPEKVTVVKVDPETGEIVEEKEIDLSAGGS [r8_105_TrROS_Hall],2.28 ± 0.11 kcal/mol
10,SAGGVEEIVEKLPEEAEEVEITSEPHPLPGSTLTKYTIKAKNSATGKTKTYEVTVLYDPEGNVLEVLLSAGG [r13_358_JUSTAS],2.22 ± 0.19 kcal/mol
11,SAGGSAGGSAMEELVKEAIKEGKPGEVVLIRNEDGSVFALTVKDGKIEIKKLEEVKEVVEESAGGSAGGSAG [r3_244_TrROS_Hall],1.15 ± 0.17 kcal/mol

# Test: folding stability dG unfold from chymotrypsin proteolysis; higher = more stable
# Outline: as §1
row,Sequence,folding stability dG unfold
1,SAGGLTPEQWREIAKNFANELAKEYQERGPNVKIDVEVDPEEGYFKIKVENNDENMPRTITIPWDDIRSAGG [r13_354_TrROS],1.35 ± 0.066 kcal/mol
2,SWMFMIEVHDPKNGKERTVPINMPKEQVLDQIREAQEKGPRIEIWGIPPNAIKEIAEEAKLPVEIHPMPPSA [r9_1207_TrROS],0.409 ± 0.15 kcal/mol
3,SAGGSAGGSAGGKVSEIDLSGDKVVVTVKGPGGSVVREVHPDKTLEQVLDELLENPELVDSAGGSAGGSAGG [r7_373_TrMRF],1.55 ± 0.05 kcal/mol
4,SAGKIEKIVITKKKDGYVIKVYYKDNKKVKTYKAGKTLEEIKKKLEEEGFEIVKVEVKKVKPGEKVEISAGG [r19_386_TrROS_Hall],3.23 ± 0.21 kcal/mol
5,SAGGSAGGKETKTITMIIKVKDENGKELKAGDKVEIEINGKKITIEVTYNKKTGYLVVKATIKPSAGGSAGG [r6_657_TrROS_Hall],3.87 ± 0.11 kcal/mol
6,SAGGSAGGSAMLIVGGADPEGAAEAAEEFIAAIEKAAEELGIPPEHIEIPVLIAEPGEAPGSAGGSAGGSAG [r3_249_TrMRF],0.289 ± 0.052 kcal/mol
7,SAGGSAGGSAGGSGDPNNPVTLLVLDVPSPEPAGTVYYFPDGYVAVNFPSINRTLVFYGSAGGSAGGSAGGS [r4_78_TrMRF],1.42 ± 0.15 kcal/mol
8,SAGGSAGGSAGVITVTKDPKTGKYTVTIETPSGPATTVEVSSEEEAKELAKKLGYDIDALSAGGSAGGSAGG [r11_1049_JUSTAS],3.78 ± 0.087 kcal/mol
9,SAGGSAGGSAGMVTRRMTPEEAEKFIADLPSDWSVEEISPLPENDIVEIKIKVEPPFKLQSAGGSAGGSAGG [r17_98_JUSTAS],1.76 ± 0.035 kcal/mol
10,SAGGSAGGSAGGKKLRIKVKNKKTGKEIEIEIDVEDKTIEEIAKELAKKLNFEVTEIEPVSAGGSAGGSAGG [r7_590_TrROS_Hall],2.9 ± 0.12 kcal/mol
11,SATREIELPGKKITIHHNPGNNMFRITIYDPKPGKPVEIPIPANNPGMTMENIIDQIREAAKKGRPVRISAG [r14_157_TrROS],0.671 ± 0.079 kcal/mol
12,SAGGSAGGSAGGGVEVLSAERRRIPETGLVLVVIREKEPLKPIVVLMPEEDAVVFLKHFSAGGSAGGSAGGS [r10_988_TrMRF],0.92 ± 0.1 kcal/mol
13,SAGGSAGGSAGGTPITDEEFRDLPDDVKLVFENGEVAYVPRDPLKVPIGADKTVTAEPVPSAGGSAGGSAGG [r7_643_TrMRF],0.388 ± 0.035 kcal/mol
14,SAGGKPKEITLVVKVGETVEFPEGAEVTYDKETGTVTIKLPDGRTIRVEVTYNPDTDYLVVKITVEPSAGGS [r16_122_TrROS_Hall],2.41 ± 0.083 kcal/mol
15,SAGGRGVGRPGSRLLLVAEADLEPDEVSVEELAERIREAFPDVRVVDLRVEVGGEKARLFALVELDVSAGGS [r8_202_TrMRF],1.64 ± 0.067 kcal/mol
16,SAGLAAAIAAAGAIAEALGVTVRVEVFRDGELVGTFEIPAPVGDGEPVSLEVRLPDPEVTVRFELRIPGSAG [r14_728_TrMRF],2.51 ± 0.037 kcal/mol
17,SAGGSAGGSVEDVVKKENVEKAEVKPEPNPPVTLTKITSKNPNSNTTLTGTLVVVDPKNGLLLSAGGSAGGS [r12_133_JUSTAS],0.157 ± 0.21 kcal/mol
18,SAGGSKMEIVKYDKEKNVIYVRVDGKTYTFPLDEITEVTFDEETGELTIKVNGKTYTIKLDLPDLVSAGGSA [r2_48_TrROS_Hall],4.29 ± 0.12 kcal/mol
19,SAGGMKIRIPEGQEVKLKKVRFWHNGKPWKIPNMEIKVDRIDPNDNRVQIEIKHPNGRPHTFAFDIKSAGGS [r8_215_TrROS],0.456 ± 0.13 kcal/mol
20,SAGGSAGGSKVFTVEELENMTPEEIRALIKKSKKPVIIVAKSEEEKKRAAELLKELGVEVKVLSAGGSAGGS [r12_97_TrROS_Hall],3.6 ± 0.057 kcal/mol
21,SAGGMTLTVDEIKELLKKGYSLEEIKEALKKAGFEIVEIKKIEKKDGKIYIEIEFKKNKKIIKIEIPSAGGS [r8_179_TrROS_Hall],4.35 ± 0.18 kcal/mol
